The record followed here is PMC9271190.

Where two headings read alike, the source gives them in different places.

Series [1] deals with T1, HERV-K reverse transcriptase (RT) (Human endogenous retrovirus K (Homo …, UniProt V9H0F6 1-596)).
T1 sequence: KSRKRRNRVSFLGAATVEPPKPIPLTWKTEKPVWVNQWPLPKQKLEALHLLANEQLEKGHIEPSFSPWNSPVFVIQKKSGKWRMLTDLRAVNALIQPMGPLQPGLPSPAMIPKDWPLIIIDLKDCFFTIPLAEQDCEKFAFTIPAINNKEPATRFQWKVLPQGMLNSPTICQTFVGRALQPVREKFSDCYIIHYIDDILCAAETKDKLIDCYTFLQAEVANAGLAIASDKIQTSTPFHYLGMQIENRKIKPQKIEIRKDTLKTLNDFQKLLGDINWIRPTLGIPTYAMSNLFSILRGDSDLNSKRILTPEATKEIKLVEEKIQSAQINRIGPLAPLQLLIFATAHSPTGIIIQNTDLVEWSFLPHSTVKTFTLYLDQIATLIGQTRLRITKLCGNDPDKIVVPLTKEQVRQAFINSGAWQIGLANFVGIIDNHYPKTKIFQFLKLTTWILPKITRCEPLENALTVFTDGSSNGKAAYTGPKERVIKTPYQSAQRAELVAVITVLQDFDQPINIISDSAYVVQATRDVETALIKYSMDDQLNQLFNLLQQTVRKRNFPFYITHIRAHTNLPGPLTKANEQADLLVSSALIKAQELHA
In words: X-ray crystallography.

Series [2] deals with T1, HERV-K reverse transcriptase (RT). The experiment in a line: X-ray crystallography. The source holds these as a separate data set.

B1: U5-PBS DNA template/primer extended by ddT (dsDNA)
DNA 1: GGGACCTGAAAGCGAAAGGGAAAC
DNA 2: GTTTCCCTTTCGCTTTCAGGT
modifications: primer 3'-terminal 2',3'-dideoxy-T (incorporated from ddTTP)
B1: the binding result in series [1] is listed as “binds”.

B2: U5-PBS DNA template/primer, unextended (primer ends in G) (dsDNA)
DNA 1: GGGACCTGAAAGCGAAAGGGAAAC
DNA 2: GTTTCCCTTTCGCTTTCAGG
For the molecule B2, the binding result in series [2] is reported as “binds”.
